T1: TACI on TACI+ expressing IM9 cell line (UniProt O14836 1-293, limits assumed)
T1 construct: whole, on cells; also called TACI+IM9 cells; TACI+ in IM9 cells
T1 sequence (looked up): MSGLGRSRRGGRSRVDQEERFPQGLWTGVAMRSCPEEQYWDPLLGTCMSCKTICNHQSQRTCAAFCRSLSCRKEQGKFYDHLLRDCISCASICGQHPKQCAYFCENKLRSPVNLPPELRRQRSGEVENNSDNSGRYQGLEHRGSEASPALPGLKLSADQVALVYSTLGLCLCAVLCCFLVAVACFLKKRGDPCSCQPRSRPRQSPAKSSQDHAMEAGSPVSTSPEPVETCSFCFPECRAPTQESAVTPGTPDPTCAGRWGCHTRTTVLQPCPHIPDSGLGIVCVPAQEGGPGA


Key:
[1] = target: T1, TACI on TACI+ expressing IM9 cell line; test: FACS on TACI+IM9 cells, 1 to 50 ng/mL ligand; the filing calls a major component of this binding nonspecific
[2] = target: T1, TACI on TACI+ expressing IM9 cell line; test: FACS on TACI+IM9 cells, 1 to 50 ng/mL ligand

binding result [1] | binding result [2] | Binder
binds | – | truncated human APRIL ligand polypeptide encoded by amino acid residues 105-250 of SEQ ID NO: 6 (ligand, not shown: small tags and cut ends, also called longer truncate of human APRIL ligand polypeptide) AVLTQKQKKQHSVLHLVPINATSKDDSDVTEVMWQPALRRGRGLQAQGYGVRIQDAGVYLLYSQVLFQDVTFTMGQVVSREGQGRQETLFRCIRSMPSHPDRAYNSCYSAGVFHLHQGDILSVIIPRARAKLNLSPHGTFLGFVKL
– | binds | FLAG-tagged truncated human APRIL ligand polypeptide (amino acids 115-250 of SEQ ID NO: 6) (ligand, not shown: small tags and cut ends, Expressed in 293T cells; Tested both purified (anti-FLAG M1, SP Sepharose, Superdex 200) and unpurified in cell medium (SN); also called FLAGhuAPRIL purified; FLAGhuAPRIL SN) HSVLHLVPINATSKDDSDVTEVMWQPALRRGRGLQAQGYGVRIQDAGVYLLYSQVLFQDVTFTMGQVVSREGQGRQETLFRCIRSMPSHPDRAYNSCYSAGVFHLHQGDILSVIIPRARAKLNLSPHGTFLGFVKL

Reference: patent US20060003407A1 (Biogen, published 2006)
